Results taken from patent US20150344570A1 (published 2015).

Target: T1, Protein A (UniProt P38507 37-327)
T1 construct: Commercial chromatography resin; also called rProtein A Sepharose Fast Flow (GE Healthcare)
Assay: Protein A column chromatography, stepwise pH elution; eluted fractions analysed by cation exchange chromatography (peak area %)

B1: J142-z72/L180-k (antibody, human IgG4 S228P, kappa)
heavy: QVQLVQSGSELKKPGASVKVSCKASGYTFTDNNMDWVRQAPGQGLEWMGDINTRSGGSIYNEEFQDRVTMTIDKSTGTAYMELSSLRSEDTAVYYCARRRSYGYYHDEWGEGTLVTVSSASTKGPSVFPLAPCSRSTSESTAALGCLVKDYFPEPVTVSWNSGALTSGVHTFPAVLQSSGLYSLSSVVTVPSSSLGTKTYTCNVDHKPSNTKVDKRVESKYGPPCPPCPAPEFLGGPSVFLFPPKPKDTLMISRTPEVTCVVVDVSQEDPEVQFNWYVDGVEVHNAKTKPREEQFNSTYRVVSVLTVLHQDWLNGKEYKCKVSNKGLPSSIEKTISKAKGQPREPQVYTLPPSQEEMTKNQVSLTCLVKGFYPSDIAVEWESNGQPENNYKTTPPVLDSDGSFFLYSRLTVDKSRWQEGNVFSCSVMHEALHNRFTQKSLSLSP
light: DIQMTQSPSSLSASVGDRVTITCKASRNIERNLAWYQQKPGQAPELLIYSASRKESGVPDRFSGSRYGTDFTLTISSLQPEDLATYYCQQYYSPPLTFGGGTKVEIKRTVAAPSVFIFPPSDEQLKSGTASVVCLLNNFYPREAKVQWKVDNALQSGNSQESVTEQDSKDSTYSLSSTLTLSKADYEKHKVYACEVTHQGLSSPVTKSFNRGEC
notes: also called homomeric antibody against FX
binding result: no binding
